In paper PMC3616104, “Structural and Phylogenetic Studies with MjTX-I Reveal a Multi-Oligomeric Toxin – a Novel Feature in Lys49-PLA2s Protein Class” (PLoS ONE, 2013):

How the values were obtained:
[1] = target: the molecule itself; experiment: dynamic light scattering; MjTX-I 1.5 mg/ml, 18 °C, 20 mM Tris-HCl pH 8.0
[2] = target: the molecule itself; experiment: dynamic light scattering; MjTX-I 1.5 mg/ml, 18 °C, 0.5, 2.0 and 10.0 mM Tris-HCl pH 8.0, two hours after addition of the buffer

B1: MjTX-I (myotoxin-I) from Bothrops moojeni venom (natural protein)
chain: SLVELGKMILQETGKNPVTSYGAYGCNCGVLGRGKPKDATDRCCYVHKCCYKKLTDCNPKKDRYSYSWKDKTIVCGENNSCLKELCECDKAVAICLRENLDTYNKKYKNNYLKPFCKKADPC
notes: Myotoxin-I (MjTX-I), Lys49-phospholipase A2 homologue from Bothrops moojeni venom, NCBI GI 17368325; about 14 kDa per monomer; also called Lys49-PLA2
- stoichiometry N [1]: 4
- stoichiometry N [2]: 2
